Usually stoichiometry N stands for a count of units in the complex or per binding partner.

In data set [1] the target is Tm1570 domain of CnTrmD-Tm1570 (residues 241-433) (Calditerrivibrio nitroreducens). Description: SEC; preparative Superdex 75 column; running buffer 50 mM Hepes, 300 mM NaCl, 10% glycerol, 1 mM TCEP, pH 7.4; proteins refolded from urea; oligomer state judged by retention volumes. A general note: In gel filtration, larger molecules generally elute earlier.
Data set [2] concerns the molecule itself. The description is as above.

In turn, “Tm1570 domain of CnTrmD-Tm1570 (residues 241-433) (domain or fragment)” came in with a stoichiometry N in data set [1] of 2.

B1: TrmD domain of CnTrmD-Tm1570 (residues 1-240) (domain or fragment, Calditerrivibrio nitroreducens, UniProt E4THH1 1-240, looked up)
chain: MKRYNVITIFPEMINEIFKYGVLSKGIDIGLFRVNPINLRDYTEDKHKTVDDYQYGGGHGLVMKPEPIYKAIADLKSKKDTHVVFLDPRGEQFTQKTAERLYNYDDITFVCGRYEGIDDRVRELMADEMISIGDFVITGGELAAVTIIDAVARLIPGVLGDENSPNEESFTTGLLEYPHFTRPAEFMGKKVPEVLISGNHEEIRRWRLTESIKTTLQNRPDMILRKSLSREEEQILWSLT
notes: TrmD domain of TrmD-Tm1570 of Calditerrivibrio nitroreducens, UniProtKB E4THH1, residues 1-240; 27.5 kDa monomer; Truncated version of m1
Consider B1, for which, in data set [2], the “stoichiometry N” value was found to be 2.

B2: single-domain EcTrmD (enzyme, E. coli (from the label EcTrmD), UniProt P0A873 1-255, looked up)
chain: MWIGIISLFPEMFRAITDYGVTGRAVKNGLLSIQSWSPRDFTHDRHRTVDDRPYGGGPGMLMMVQPLRDAIHAAKAAAGEGAKVIYLSPQGRKLDQAGVSELATNQKLILVCGRYEGIDERVIQTEIDEEWSIGDYVLSGGELPAMTLIDSVSRFIPGVLGHEASATEDSFAEGLLDCPHYTRPEVLEGMEVPPVLLSGNHAEIRRWRLKQSLGRTWLRRPELLENLALTEEQARLLAEFKTEHAQQQHKHDGMA
notes: tRNA methyltransferase D (TrmD), single-domain protein, labelled EcTrmD; 28.4 kDa monomer; The printed monomer mass of 28.4 kDa fits the whole protein
With B2, the binding result in data set [2] was “binds”.

B3: TrmD-Tm1570 fusion protein from Calditerrivibrio nitroreducens (enzyme, UniProt E4THH1 1-433, looked up)
chain: MKRYNVITIFPEMINEIFKYGVLSKGIDIGLFRVNPINLRDYTEDKHKTVDDYQYGGGHGLVMKPEPIYKAIADLKSKKDTHVVFLDPRGEQFTQKTAERLYNYDDITFVCGRYEGIDDRVRELMADEMISIGDFVITGGELAAVTIIDAVARLIPGVLGDENSPNEESFTTGLLEYPHFTRPAEFMGKKVPEVLISGNHEEIRRWRLTESIKTTLQNRPDMILRKSLSREEEQILWSLTRGVQRKYNIYVALMHYPMRDKEGKVVTTSITNMDLHDISRSCRTFGVKNYFVVNPMPAQREIASRVVRHWIKGYGATYNENRKEAFEYTIITDSLASVIKSIEEKESGSPIIIATTARYQQKAISIEKLKEIADRPILLLFGTGWGFVDDILEFADYVLKPIHGVGDFNHLSVRSAVAIYLDRINRSFQEDIL
notes: TrmD-Tm1570 (PF01746-PF09936 architecture) of Calditerrivibrio nitroreducens, UniProtKB E4THH1; full-length protein, residues 1-433 by the limits of the two truncated domains; 49.6 kDa monomer; Codon-optimized synthetic gene in pET28b; further details of the constructs are in SI Materials and Methods; also called CnTrmD-Tm1570; fusion TrmD-Tm1570
For B3, in data set [2], the “stoichiometry N” value is 2.

The record behind these values is PMC11187310, “Are there double knots in proteins? Prediction and in vitro verification based on TrmD-Tm1570 fusion from C. nitroreducens” (Frontiers in Molecular Biosciences, 2023).
